# Measured values published in patent US8962263B2, “Methods and compositions for detecting the activation state of multiple proteins in single cells” (The Board of Trustees of the Leland Stanford Junior …, priority 2001, dated 2015).
# What was measured:
# Format in all cases: cell-based
# [1] = test system: Pyk2; assay: sICAM-2 induced Pyk2 phosphorylation (phospho-tyrosine based ELISA, chemical genetic approach)
# Description: (§1) E) depicts that LFA-1, induced phosphorylation of Pyk2, and Syk is dependent on PKC. We screened for the inhibition of sICAM-2, induced Pyk2, and Syk phosphorylation by chemical inhibitors to tyrosine kinases using a phospho-tyrosine based ELISA. Pyk2, phosphorylation was abrogated in the presence of PKC inhibitors bisindolymaleimide II (BIM II) and staurosporine (STP), in addition to tyrphostin A9, a specific Pyk2, inhibitor. a Pyk2, phosphorylation was also affected by inhibitors of phospholipase Cg (neomycin), inhibitors of Syk (piceatannol), and PKC inhibitor BIM I. Syk phosphorylation was completely abolished by inhibition of Pyk2, PLCg1, and strongly affected by PKC inhibitors. Thus, both Pyk2, and Syk phosphorylations were dependent on PKC activity, while Syk phosphorylation was additionally dependent on PLCg1, and Pyk2, activity. It was not possible to assess specific PKC isozymes by this method.
# A chemical genetic approach was undertaken to determine the hierarchy of PKC, Pyk2, PLCg1, and Syk activities in response to sICAM-2, stimulus by verifying phosphorylation status of each kinase in the presence of respective chemical inhibitors. Inhibition of PKC with BIM II abrogated phosphorylation of Pyk2, PLCg1, and Syk. Inhibition of PLCg1, by neomycin abrogated phosphorylation of Syk, with no inhibition observed for Pyk2. […] Thus, the upstream signaling events from LFA-1, to Raf-1, appear to involve PKC/Pyk2/PLCg1/Syk. […] We are currently pursuing these complexes in a separate study.
# [2] = test system: Syk; assay: sICAM-2 induced Syk phosphorylation (phospho-tyrosine based ELISA, chemical genetic approach); conditions: sICAM-2 stimulus
# Description: as §1
# A chemical genetic approach was undertaken to determine the hierarchy of PKC, Pyk2, PLCg1, and Syk activities in response to sICAM-2, stimulus by verifying phosphorylation status of each kinase in the presence of respective chemical inhibitors. Inhibition of PKC with BIM II abrogated phosphorylation of Pyk2, PLCg1, and Syk. Inhibition of PLCg1, by neomycin abrogated phosphorylation of Syk, with no inhibition observed for Pyk2. […]
# [3] = test system: CD56 CD8 cytotoxic lymphocyte subsets; assay: intracellular perforin and granzyme-A in CD56CD8 subsets of human PBMC by flow cytometry; conditions: for granzyme-A negative population: CD56+CD8high population; for changes in intracellular perforin or granzyme-A: CD56+CD8low population; for frequency of the perforin negative population: CD56+CD8med population
# Description: IL-2, activated PBMC (shown in A-1 and A-3) were mock-treated (IgG) (A-2) , ICAM-1, (A2), ICAM-2, (A4), or ICAM-3, (A4) treated (10, μg/ml of FC fusion protein) for 12 hrs prior to incubation with target HL60, cells at a 50:1, E:T ratio for 4, hrs. Cells were then prepared for flow cytometry with CD8-CY5PE, CD56-PE surface stains, and perforin-CY5, and granzyme-A-FITC intracellular stains. Cells were gated for CD56^+CD8^low, CD56^+CD8^med, CD56^+, CD8^high, CD56^−, CD8^−, , CD56^−-CD8^high, populations as shown in A-1 and A-3 and population frequencies within appropriate gate. […] Results are representative of 3 independent experiments and were similar at 25:1 and 12.5:1 E:T ratios (data not shown). Manual calibration was performed. […] Perforin percentage was calculated from the following equation where MFI equals mean fluorescent intensity: 100×[(MFIexperimental−MFIisotype mAb)/(MFIcontrol−MFlisotype mAb)] Unstimulated cells were used as control.
# (§2) Target cell lysis was measured by flow cytoemtric based detection of CFSE labeled HL60 cells. HL60 cells were labeled with 1 μg of CFSE (30 min, 37° C.). Targets were washed twice and mock treated, IL-2 activated (100 U/ml), CD3/CD28 activated (1 μg/ml), or treated with ICAM2 beads or soluble ICAM-1, -2, or 3 (10 μg/ml, 30 min, 37° C.) before plating at 10^4 target cells/well of a 96-well round bottom plate. CTLs were added at 50:1, 25:1, and 12.5:1 E:T ratio, and incubated at 37° C. for 4 hrs. Cells were then processed for multiparameter flow cytometry and intracellular perforin stain. Percent specific lysis was calculated by the following equation: % specific lysis=100-100×(experimental HL60 count/total control HL60 count). HL60 counts were detectable by the CFSE fluorescence. Percent perforin was calculated by the following equation: % perforin=100×[(experimental perforin MFI−isotype mAb MFI)/(total perforin MFI−isotype mAb MFI)]. MFI refers to mean fluorescent intensity of flow cytoemtric based intracellular detection. Cell conjugates were determined by flow cytometry as described (Morgan et al., 2001). Chemical inhibition was done at 10 μM of indicated compound (30 min, 37° C.) prior to stimulation as indicated. All experiments were performed in triplicate.
# [4] = test system: HL60 cells; assay: FACS based effector-target killing assay, human PBMC against CFSE labeled HL60 cells; conditions: 10 μg/ml, 50:1 E:T ratio, 4 hrs
# Description: A) PBMC were either treated with ICAM-2, (10 μg/ml) in the presence of IL-2, for 12, hr and then incubated with CFSE labeled target HL60, cells at a 50:1, E:T ratio for 4, hrs. Remaining HL60, cells were quantified by flow cytometry. B) PBMC were treated with IL-2, (100, U/ml, 12, hrs) and treated with ICAM-1,-2, or 3, FC proteins (10, μg/ml) and used in a cytotoxicity assay as described above. Results are representative of 4, independent experiments.
# as §2
Molecule,"phosphorylation of Pyk2 ([1]; chemical genetic approach, sICAM-2 stimulus)",sICAM-2 induced Pyk2 phosphorylation ([1]; phospho-tyrosine based ELISA),phosphorylation of Syk [2],granzyme-A negative population [3] [%],changes in intracellular perforin or granzyme-A [3],frequency of the perforin negative population [3] [%],target cell lysis of HL60 cells [4]
neomycin,no inhibition,affected,abrogated,,,,
"ICAM-3: recombinant human ICAM3-FC, soluble LFA-1 ligand (protein, left off: a dimerising Fc or GST, recombinant human ICAM3-FC, soluble LFA-1 ligand) QEFLLRVEPQNPVLSAGGSLFVNCSTDCPSSEKIALETSLSKELVASGMGWAAFNLSNVTGNSRILCSVYCNGSQITGSSNITVYRLPERVELAPLPPWQPVGQNFTLRCQVEDGSPRTSLTVVLLRWEEELSRQPAVEEPAEVTATVLASRDDHGAPFSCRTELDMQPQGLGLFVNTSAPRQLRTFVLPVTPPRLVAPRFLEVETSWPVDCTLDGLFPASEAQVYLALGDQMLNATVMNHGDTLTATATATARADQEGAREIVCNVTLGGERREARENLTVFSFLGPIVNLSEPTAHEGSTVTVSCMAGARVQVTLDGVPAAAPGQPAQLQLNATESDDGRSFFCSATLEVDGEFLHRNSSVQLRVLYGPKIDRATCPQHLKWKDKTRHVLQCQARGNPYPELRCLKEGSSREVPVGIPFFVNVTHNGTYQCQASSSRGKYTLVVVMDIEAGSSH",,,,3.07,no significant changes,19.8,did not initiate as potent a cytotoxic cell response
"ICAM-1: recombinant human ICAM-1-FC, soluble LFA-1 ligand (protein, left off: a dimerising Fc or GST, recombinant human ICAM-1-FC, soluble LFA-1 ligand) QTSVSPSKVILPRGGSVLVTCSTSCDQPKLLGIETPLPKKELLLPGNNRKVYELSNVQEDSQPMCYSNCPDGQSTAKTFLTVYWTPERVELAPLPSWQPVGKNLTLRCQVEGGAPRANLTVVLLRGEKELKREPAVGEPAEVTTTVLVRRDHHGANFSCRTELDLRPQGLELFENTSAPYQLQTFVLPATPPQLVSPRVLEVDTQGTVVCSLDGLFPVSEAQVHLALGDQRLNPTVTYGNDSFSAKASVSVTAEDEGTQRLTCAVILGNQSQETLQTVTIYSFPAPNVILTKPEVSEGTEVTVKCEAHPRAKVTLNGVPAQPLGPRAQLLLKATPEDNGRSFSCSATLEVAGQLIHKNQTRELRVLYGPRLDERDCPGNWTWPENSQQTPMCQAWGNPLPELKCLKDGTFPLPIGESVTVTRDLEGTYLCRARSTQGEVTRKVTVNVLSPRYE",,,,4.12,no significant changes,13.7,did not initiate as potent a cytotoxic cell response
